# Experimental data taken from the FLAb antibody collection.
# Assay: patients with anti-drug antibodies; higher = more immunogenic
row,Protein,patients with anti-drug antibodies [%]
1,unnamed (protein) chain 1: EVQLQQSGAELVKPGASVKLSCTASGFNIKDTYVHWVKQRPEQGLEWIGRIDPANGYTKYDPKFQGKATITADTSSNTAYLQLSSLTSEDTAVYYCVRPLYDYYAMDYWGQGTSVTVSS chain 2: DILMTQSPSSMSVSLGDTVSITCHASQGISSNIGWLQQKPGKSFMGLIYYGTNLVDGVPSRFSGSGSGADYSLTISSLDSEDFADYYCVQYAQLPYTFGGGTKLEIK,35.5
2,unnamed (protein) chain 1: QVQLVQSGAEVKKPGASVKVSCKASGYTFTSYYMHWVRQAPGQGLEWMGEISPFGGRTNYNEKFKSRVTMTRDTSTSTVYMELSSLRSEDTAVYYCARERPLYASDLWGQGTTVTVSS chain 2: DIQMTQSPSSLSASVGDRVTITCRASQGISSALAWYQQKPGKAPKLLIYSASYRYTGVPSRFSGSGSGTDFTFTISSLQPEDIATYYCQQRYSLWRTFGQGTKLEIK,25.5
3,unnamed (protein) chain 1: QVQLQQPGAELVRPGASVKLSCKASGYTFTSYWINWVKQRPGQGLEWIGNIYPSDSYTNYNQKFKDKATLTVDKSSSTAYMQLSSPTSEDSAVYYCTRSWRGNSFDYWGQGTTLTVSS chain 2: DIVMTQSPSSLTVTAGEKVTMSCKSSQSLLNSGNQKNYLTWYQQKPGQPPKLLIYWASTRESGVPDRFTGSGSGTDFTLTISSVQAEDLAVYYCQNDYSYPFTFGSGTKLEIK,0
4,unnamed (protein) chain 1: QVQLVESGGGVVQPGRSLRLSCAASGFTFSTYGMHWVRQAPGKGLEWVAVIWDDGSYKYYGDSVKGRFTISRDNSKNTLYLQMNSLRAEDTAVYYCARDGITMVRGVMKDYFDYWGQGTLVTVSS chain 2: AIQLTQSPSSLSASVGDRVTITCRASQDISSALVWYQQKPGKAPKLLIYDASSLESGVPSRFSGSESGTDFTLTISSLQPEDFATYYCQQFNSYPLTFGGGTKVEIK,0
5,unnamed (protein) chain 1: QLQLQESGPGLLKPSETLSLTCTVSGGSISSPGYYGGWIRQPPGKGLEWIGSIYKSGSTYHNPSLKSRVTISVDTSKNQFSLKLSSVTAADTAVYYCTRPVVRYFGWFDPWGQGTLVTVSS chain 2: AIQLTQSPSSLSASVGDRVTITCRASQGISSALAWYQQKPGKAPKLLIYDASNLESGVPSRFSGSGSGTDFTLTISSLQPEDFATYYCQQFNSYPTFGQGTKVEIK,2.2
6,unnamed (protein) chain 1: QVQLQQSGAELVRPGSSVKISCKASGYAFSSYWMNWVKQRPGQGLEWIGQIWPGDGDTNYNGKFKGKATLTADESSSTAYMQLSSLASEDSAVYFCARRETTTVGRYYYAMDYWGQGTTVTVSS chain 2: DIQLTQSPASLAVSLGQRATISCKASQSVDYDGDSYLNWYQQIPGQPPKLLIYDASNLVSGIPPRFSGSGSGTDFTLNIHPVEKVDAATYHCQQSTEDPWTFGGGTKLEIK,1.4
7,unnamed (protein) chain 1: ELQLQESGPGLVKPSETLSLTCTVSGGSISSGSYYWDWIRQPPGKGLEWIGNIYKSGSTYYNPSLKSRVTISVDTSKNQFSLKLSSVTAADTAVYYCARERGMHYMDVWGKGTTVTVSS chain 2: DIQMTQSPSSLSASVGDRVTITCRASQSINSYLNWYQQKPGKAPKLLIYAASSLQSGVPSRFSGSGSGTDFTLTISSLQPEDFATYYCQQQFDPPFTFGGGTKVEIK,0
8,unnamed (protein) chain 1: EVQLVESGGGLVQPGGSLRLSCAASGFTFNTYAMYWIRQAPGKGLEWVARIRSKSNNYAIYYADSVKDRFTISRDDSKNSLYLQMNSLKTEDTAVYYCARPYSDSFAYWGQGTLVTVSS chain 2: DVVMTQSPLSLPVTPGEPASISCRSSQSLVHSTGNTYLHWYLQKPGQSPQLLIYKVSNRFSGVPDRFSGSGSGTDFTLKISRVEAEDVGVYYCSQSTHVPFTFGGGTKVEIK,0
9,unnamed (protein) chain 1: QVQLVESGGGVVQPGRSLRLSCAASGFTFSSYDMHWVRQAPGKGLEWVAVIWYDGSNKYYADSVKGRFTISRDNSKNTLYLQMNSLRAEDTAVYYCARGSGNWGFFDYWGQGTLVTVSS chain 2: DIQMTQSPSSLSASVGDRVTITCRASQGISRWLAWYQQKPEKAPKSLIYAASSLQSGVPSRFSGSGSGTDFTLTISSLQPEDFATYYCQQYNTYPRTFGQGTKVEIK,0
10,unnamed (protein) chain 1: QVQLVQSGAEVKKPGASVKVSCKGSGYTFTSYWMHWVRQAPGQRLEWIGEIDPSESNTNYNQKFKGRVTLTVDISASTAYMELSSLRSEDTAVYYCARGGYDGWDYAIDYWGQGTLVTVSS chain 2: DVVMTQSPLSLPVTPGEPASISCRSSQSLAKSYGNTYLSWYLQKPGQSPQLLIYGISNRFSGVPDRFSGSGSGTDFTLKISRVEAEDVGVYYCLQGTHQPYTFGQGTKVEIK,9.5
11,unnamed (protein) chain 1: EVQLVQSGAEVKKPGASVKVSCKASGYTFTSYVIHWVRQRPGQGLAWMGYINPYNDGTKYNERFKGKVTITSDRSTSTVYMELSSLRSEDTAVYLCGREGIRYYGLLGDYWGQGTLVTVSS chain 2: DIQMTQSPSSLSASVGDRVTITCGTSEDIINYLNWYQQKPGKAPKLLIYHTSRLQSGVPSRFSGSGSGTDFTLTISSLQPEDFATYYCQQGYTLPYTFGQGTKVEIK,13
12,unnamed (protein) chain 1: EVQLQQSGPELVKPGASVKMSCKASGYTFTSYVVHWVKQNPGQGLEWIGYINPFNDGTKYNENFKGKATLTSDRSSSTAYMELSSLTSEESAVYFCARDMGREGFAYWGQGTLVTVSA chain 2: DIVMTQAAFSNPVTLGTSASISCRSSKSLLHSNGITYLYWYLQKPGQSPQLLIYQMSNLASGVPDRFSSSGSGTDFTLRISRVEAEDVGVYYCAQNLELPRTFGGGTKLEI,100
13,unnamed (protein) chain 1: EVQLVESGGGLVQPGGSLRLSCAASGYTFTNYGMNWVRQAPGKGLEWVGWINTYTGEPTYAADFKRRFTFSLDTSKSTAYLQMNSLRAEDTAVYYCAKYPHYYGSSHWYFDVWGQGTLVTVSS chain 2: DIQMTQSPSSLSASVGDRVTITCSASQDISNYLNWYQQKPGKAPKVLIYFTSSLHSGVPSRFSGSGSGTDFTLTISSLQPEDFATYYCQQYSTVPWTFGQGTKVEIK,0.3
14,unnamed (protein) chain 1: QVQLVESGGGVVQPGRSLRLSCAASGFTFSSYGMHWVRQAPGKGLEWVAVIWYDGSNEYYADSVKGRFTISRDNSKNTLYLQMNSLRAEDTAVYYCARDRGYTSSWYPDAFDIWGQGTMVTVSS chain 2: QSVLTQPPSVSGAPGQRVTISCTGSSSNTGAGYDVHWYQQVPGTAPKLLIYGSGNRPSGVPDRFSGSKSGTSASLAITGLQAEDEADYYCQSYDSSLSGWVFGGGTRLTVL,2.5
15,unnamed (protein) chain 1: EVQLVQSGAEVKKPGESLRISCKGSGYSFSTYWISWVRQMPGKGLEWMGKIYPGDSYTNYSPSFQGQVTISADKSISTAYLQWSSLKASDTAMYYCARGYGIFDYWGQGTLVTVSS chain 2: SYELTQPPSVSVSPGQTASITCSGDNIGDQYAHWYQQKPGQSPVLVIYQDKNRPSGIPERFSGSNSGNTATLTISGTQAMDEADYYCATYTGFGSLAVFGGGTKLTVL,40.7
16,unnamed (protein) chain 1: EVQLVESGGGLVQPGGSLRLSCAASGFTFSDYNMAWVRQAPGKGLEWVATITYEGRNTYYRDSVKGRFTISRDNAKNSLYLQMNSLRAEDTAVYYCASPPQYYEGSIYRLWFAHWGQGTLVTVSS chain 2: AIQLTQSPSSLSASVGDRVTITCRADESVRTLMHWYQQKPGKAPKLLIYLVSNSEIGVPDRFSGSGSGTDFRLTISSLQPEDFATYYCQQTWSDPWTFGQGTKVEIK,12.8
17,unnamed (protein) chain 1: QVQLQQSGAEVKKPGSSVKVSCKASGYTFTSYNMHWVKQAPGQGLEWIGAIYPGMGDTSYNQKFKGKATLTADESTNTAYMELSSLRSEDTAFYYCARSTYYGGDWYFDVWGQGTTVTVSS chain 2: DIQLTQSPSSLSASVGDRVTMTCRASSSVSYIHWFQQKPGKAPKPWIYATSNLASGVPVRFSGSGSGTDYTFTISSLQPEDIATYYCQQWTSNPPTFGGGTKLEIK,19.5
18,unnamed (protein) chain 1: QVELVESGGGLVQPGGSLRLSCAASGFTFTSYWMSWVRQAPGKGLELVSSITSYGSFTYYADSVKGRFTISRDNSKNTLYLQMNSLRAEDTAVYYCARNMYTHFDSWGQGTLVTVSS chain 2: DIVLTQPPSVSGAPGQRVTISCSGSSSNIGSNSVSWYQQLPGTAPKLLIYDNSKRPSGVPDRFSGSKSGTSASLAITGLQSEDEADYYCQSRDTYGYYWVFGGGTKLTVL,2.3
19,unnamed (protein) chain 1: QVQLQESGPGLVKPSETLSLTCTVSGFSLTNYGIHWIRQPPGKGLEWLGVIWARGFTNYNSALMSRLTISKDNSKNQVSLKLSSVTAADTAVYYCARANDGVYYAMDYWGQGTLVTVSS chain 2: DFVMTQSPAFLSVTPGEKVTITCSAQSSVNYIHWYQQKPDQAPKKLIYDTSKLASGVPSRFSGSGSGTDYTFTISSLEAEDAATYYCQQWTTNPLTFGQGTKVEIK,2.6
